# Source: patent US7078382B1, “Modulation of eNOS activity and therapeutic uses thereof” (Genentech, Inc., priority 1999, dated 2006)
# Substitutions are numbered along the chain they refer to. In names and notes the source's numbering stands. Entries after “also recorded” stand apart in the source; their conditions may differ.
# B1: PLGF: recombinant human placental growth factor (protein, UniProt P49763 19-221, looked up)
# Placenta growth factor: LPAVPPQQWALSAGNGSSEVEVVPFQEVWGRSYCRALERLVDVVSEYPSEVEHMFSPSCVSLLRCTGCCGDENLHCVPVETANVTMQLLKIRSGDRPSYVELTFSQHVRCECRHSPGRQSPDMPGDFRADAPSFLPPRRSLPMLFRMEWGCALTGSQSAVWPSSPVPEEIPRMHPGRNGKKQQRKPLREKMKPERCGDAVPRR
# B2: LK-VRB-7s*: VEGF (1-109) variant, M18E/D63S/G65M/L66R (protein)
# chain: APMAEGGGQNHHEVVKFEDVYQRSYCHPIETLVDIFQEYPDEIEYIFKPSCVPLMRCGGCCNSEMRECVPTEESNITMQIMRIKPHQGQHIGEMSFLQHNKCECRPKKD
# B3: LK-VRB-8s*: VEGF (1-109) variant, Y2IL/D63S/G65M/LG6R as printed (protein)
# chain: B2 chain with E18M, Y21L
# B4: LK-VRB-9s: VEGF (1-109) variant, Q22R/D63S/G65M/L66R (protein)
# chain: B2 chain with E18M, Q22R
# B5: LK-VRB-10s: VEGF (1-109) variant, Y25S/D63S/G65M/L66R (protein)
# chain: B2 chain with E18M, Y25S
# B6: LK-VRB-11s: VEGF (1-109) variant, M18E/Y21L/D63S/G65M/L66R (protein)
# chain: B2 chain with Y21L
# B7: LK-VRB-12s: VEGF (1-109) variant, M18E/Q22R/D63S/G65M/L66R (protein)
# chain: B2 chain with Q22R
# B8: LK-VRB-13s: VEGF (1-109) variant, M18E/Y25S/D63S/G65M/L66R (protein)
# chain: B2 chain with Y25S
# B9: LK-VRB-14s: VEGF (1-109) variant, Y21L/Q22R/D63S/G65M/L66R (protein)
# chain: B2 chain with E18M, Y21L, Q22R
# B10: LK-VRB-15s: VEGF (1-109) variant, Y21L/Y25S/D63S/G65M/L66R (protein)
# chain: B2 chain with E18M, Y21L, Y25S
# B11: LK-VRB-16s: VEGF (1-109) variant, Q22R/Y25S/D63S/G65M/L66R (protein)
# chain: B2 chain with E18M, Q22R, Y25S
# B12: LK-VRB-17s: VEGF (1-109) variant, M18E/Y21L/Q22R/D63S/G65M/L66R (protein)
# chain: B2 chain with Y21L, Q22R
# B13: LK-VRB-19s: VEGF (1-109) variant, M18E/Q22R/Y25S/D63S/G65M/L66R as printed (same as 18s) (protein)
# chain: B2 chain with Q22R, Y25S
# B14: LK-VRB-20s: VEGF (1-109) variant, Y21L/Q22R/Y25S/D63S/G65M/L66R (protein)
# chain: B2 chain with E18M, Y21L, Q22R, Y25S
# B15: LK-VRB-21s: VEGF (1-109) variant, D63S/M18E/Y21L/Q22R/Y25S (protein)
# chain: B2 chain with Y21L, Q22R, Y25S, M65G, R66L
# B16: LK-VRB-22s: VEGF (1-109) variant, GG5M/M18E/Y21L/Q22R/Y25S as printed (protein)
# chain: B2 chain with Y21L, Q22R, Y25S, S63D, R66L
# B17: LK-VRB-23s: VEGF (1-109) variant, L66R/M185/Y21L/Q22R/Y25S as printed (protein)
# chain: B2 chain with Y21L, Q22R, Y25S, S63D, M65G
# B18: LK-VRB-24s: VEGF (1-109) variant, D63S/G65M/M18E/Y21L/Q22R/Y25S (protein)
# chain: B2 chain with Y21L, Q22R, Y25S, R66L
# B19: LK-VRB-25s: VEGF (1-109) variant, D63S/L66R/M18E/Y21L/Q22R/Y25S (protein)
# chain: B2 chain with Y21L, Q22R, Y25S, M65G
# B20: LK-VRB-26s: VEGF (1-109) variant, G65M/L66R/M18E/Y21L/Q22R/Y25S (protein)
# chain: B2 chain with Y21L, Q22R, Y25S, S63D
# B21: LK-VRB-4s: VEGF (1-109) variant, F17I/M18E/Y21F/Q22E/Y25I (protein)
# chain: B2 chain with F17I, Y21F, Q22E, Y25I, S63D, M65G, R66L
# B22: LK-VRB-3s: VEGF (1-109) variant, F17I/M18E/Y21F/Q22K/Y25S (protein)
# chain: B2 chain with F17I, Y21F, Q22K, Y25S, S63D, M65G, R66L
# System: eNOS expression
# Test: eNOS expression by Western blot in ACE cells
# Type: cell-based, bovine
# Settings: equal concentrations, two days
# Experimental: At the end of incubation, total cell lysates were prepared, and eNOS protein levels were determined by Western blot analysis.
# Bovine adrenal cortex capillary endothelial cells (ACE) were prepared and maintained as previously described (Ferrara et.al., 1989 Biochem. Biophys. Res. Commun. 161:851–858). Briefly, cells were plated onto 6-well tissue culture plates (Costar) and grown in low glucose Dulbecco's modified Eagle's medium, supplemented with 2 mM […] (Life Technologies), 10% bovine calf serum (HyClone Lab., Inc.) and 100 μg/ml Penicillin/Streptomycin (Life Technologies). ACE cells were used between passages 4 and 8.
# Medium was changed every 24 hours.
# The methods for cell lysis and Western blot (WB) have been described in Shen et al., 1998 J. Biol. Chem. 273:29979–29985. A monoclonal anti-eNOS antibody was used at 1:2500 to probe eNOS protein. […] The protein bands were scanned by a densitometer and the relative intensities were quantified using IMAGEQUANT® software (Molecular Dynamics).
# Confluent ACE cells were incubated with 500 pM rhVEGF. […] Equal amounts of protein were denatured under reducing conditions and separated in a 10% Novex mini gel and transferred to PVDF membrane. eNOS protein signals were visualized by ECL and quantified using densitometry.
row,Molecule,eNOS expression with VEGF forms and receptor-selective variants
1,B1,had no effect; also recorded: did not

# System: Flt-1 receptor
# Sequence (P17948 27-327 limits assumed): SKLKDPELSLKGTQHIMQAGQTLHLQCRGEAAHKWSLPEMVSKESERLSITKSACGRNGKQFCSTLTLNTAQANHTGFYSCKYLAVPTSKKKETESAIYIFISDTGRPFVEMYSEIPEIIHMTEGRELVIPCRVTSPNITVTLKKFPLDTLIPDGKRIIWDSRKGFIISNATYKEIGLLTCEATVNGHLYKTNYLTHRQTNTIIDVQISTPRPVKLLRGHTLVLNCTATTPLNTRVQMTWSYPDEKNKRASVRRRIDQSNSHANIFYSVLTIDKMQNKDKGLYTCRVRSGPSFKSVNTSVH
# Test: Flt-1 receptor binding ELISA (inhibition of biotinylated native VEGF binding to Flt-IgG)
# Settings: second figure of the cell, ratio to native VEGF (8-109)
# Experimental: (§1) Receptor binding assays were performed in 96-well immunoplates (Maxisorp, Nunc-Immunoplate, Nalge Nunc International, Rochester, N.Y.). Each well was coated with 100 μl of a solution containing 2 μg/ml of rabbit F(ab′)2 to human IgG Fc (Jackson ImmunoResearch, West Grove, Pa.) in 50 mM carbonate buffer at pH 9.6 and incubated at 4° C. overnight. The supernatant was then discarded, the wells were washed three times in washing buffer (0.05% Tween 20 in PBS), and the plate was blocked (150 μl per well) with block buffer (0.5% BSA, 0.01% thimerosal in PBS) at room temperature for one hour. The supernatant was discarded, and the wells were washed.
# The wells were filled with 100 μl of a solution containing Flt-IgG (a chimeric Flt-human Fc molecule) at 50 ng/ml in assay buffer (0.5% BSA, 0.05% Tween 20 in PBS). The wells were incubated at room temperature for 1 hour and then washed three times in wash buffer (0.05% Tween 20 in PBS).
# (§2) Aliquots of the mixture (100 μl) were added to the precoated microtiter wells and the plate was incubated for 2 hours at room temperature. […] The wells were then incubated with 3, 3′, 5,5′-tetramethyl benzidine (0.2 g/liter, Kirkegaard & Perry Laboratories, Gaithersburg, Md.) for about 10 minutes at room temperature. Absorbance was read at 450 nm on a Vmax plate reader (Molecular Devices, Menlo Park, Calif.).
# (§3) Titration curves were fit with a four-parameter nonlinear regression curve-fitting program (KaleidaGraph, Synergy Software, Reading, Pa.).
row,Molecule,Relative Binding Affinity FLT-1 Receptor
1,B2,/>15000
2,B3,/>21000
3,B4,/300
4,B5,/>2400
5,B6,/>14000
6,B7,/>5600
7,B8,/>14000
8,B9,/>2900
9,B10,/>21000
10,B11,/>1400
11,B12,/>1900
12,B13,/>35000
13,B14,/>10000
14,B15,/>5600
15,B16,/>30
16,B17,/>8500
17,B18,/>18000
18,B19,/>12000
19,B20,/>25000

# Target: KDR receptor (Homo sapiens, UniProt P35968)
# Sequence (P35968 20-327 limits assumed): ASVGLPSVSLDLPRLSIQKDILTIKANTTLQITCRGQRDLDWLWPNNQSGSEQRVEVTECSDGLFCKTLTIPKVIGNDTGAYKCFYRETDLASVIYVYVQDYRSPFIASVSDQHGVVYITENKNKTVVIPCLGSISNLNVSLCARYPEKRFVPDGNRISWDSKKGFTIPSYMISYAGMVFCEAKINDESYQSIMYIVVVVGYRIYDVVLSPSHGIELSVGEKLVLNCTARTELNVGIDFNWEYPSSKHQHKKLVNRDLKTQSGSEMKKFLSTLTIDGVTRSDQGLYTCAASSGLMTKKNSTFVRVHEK
# Test: KDR receptor binding ELISA (inhibition of biotinylated native VEGF (8-109) binding)
# Settings: second figure of the cell, ratio to native VEGF (8-109)
# Experimental: as §1, with “containing 8” for “containing 2”, “of a monoclonal antibody” for “of rabbit F(ab′)2”, “to KDR known as MAKD5 (Genentech, South San Francisco, Calif.)” for “to human IgG Fc (Jackson ImmunoResearch, West Grove, Pa.)”, “was” for “was then”
# as §2, with “of this” for “of the”, “for 1 hour” for “for 2 hours”, “(0.2 gram/liter;” for “(0.2 g/liter,”
# as §3
row,Molecule,Relative Binding Affinity KDR Receptor
1,B21,1 nM/1
2,B2,1 nM/1
3,B3,0.5 nM/0.5
4,B4,0.5 nM/0.5
5,B5,0.5 nM/0.5
6,B6,2 nM/2
7,B7,0.4 nM/0.4
8,B8,14 nM/14
9,B9,0.5 nM/0.5
10,B10,2 nM/2
11,B11,0.6 nM/0.6
12,B12,3 nM/3
13,B13,7 nM/7
14,B14,2 nM/2
15,B15,3 nM/3
16,B16,4 nM/4
17,B17,11 nM/11
18,B18,10 nM/10
19,B19,4 nM/4
20,B20,23 nM/23
21,B22,1 nM/1
